Source: patent US20250017964A1, “ENGINEERING OR INDUCING PDGF AND/OR PDGFR SIGNALING TO ENHANCE NK CELL THERAPY” (City of Hope, priority 2021, published 2025)

Legend:
murine NK cells = test: PDGFRβ expression in murine splenic NK cells, flow cytometry; type: cell-based, mouse; settings: splenic NK cells of C57BL/6 mice, mouse cytokines 10 ng/ml, 24 h
Method: (§1) FIGS. 7A-7F. […] Data shown are representative histograms and mean fluorescence intensity (MFI) of PDGFRα. […] Expression levels of PDGFRβ were examined by flow cytometry (n=6). […] Data shown are the percentages of PDGFRβ^+ NK cells among total NK cells (n=5). […] Data shown are representative histograms with MFI of PDGFRβ expression. (F) Expression levels of PDGFRβ on NK cells from IL-15 transgenic (Tg) mice were determined by flow cytometry. Data shown are representative histograms. Data represent three independent experiments.
Mouse NK cells were isolated from the spleen of C57BL/6J or IL-15 transgenic mice, using the EasySep Mouse NK Cell Isolation Kit ([…] Technologies) as previously described (11).
Cells were stained with the indicated cell-surface markers and/or fixed/permeabilized using a Fixation/Permeabilization Kit (eBioscience). For intracellular staining of IFN-γ and PDGF-D, 5 μg/ml Brefeldin A (BioLegend) was added for 4 h before cell harvest. Intracellular staining of Ki67 was performed by fixing and permeabilizing with the Foxp3/Transcription Factor Staining Kit (eBioscience). […] Data were analyzed using NovoExpress software (Agilent Technologies).

[1] = system: PDGFRβ expression in human NK cells; test: Cytokine-induced PDGFRβ expression in purified human NK cells, flow cytometry; type: cell-based; settings: cytokine 10 ng/ml, 24 h; IL-15 effect dose- and time-dependent
Description: Data shown are the percentages of PDGFRβ^+ NK cells among total NK cells (n=5). […] Bar=20 μm. […] Data represent three independent experiments. Data shown are means SD.
as §1
NK cells were cultured in RPMI 1640 with 10% heat-inactivated FBS (Gibco) at 37° C. in a 5% CO2 humidified incubator. For NK cell transduction, PDGFRB cDNA ORF clone (Cat: HG10514-G) was purchased from Sino Biological and cloned into pCDH-CMV-MCS-EF1-copGFP lentivirus vector (System Biosciences). To produce lentivirus, we transfected the lentiviral transfer vector DNA, together with psPAX2 packaging (Addgene) and pMD2.G envelope plasmid DNA (Addgene), into HEK293T cells; using a polyethyenimine (PEI) transfection protocol (Polysciences). Concentrated lentivirus was added to primary NK cells cultured in RPMI 1640 medium supplemented with 10% FCS and 10 jig/mL polybrene with 2,000×g centrifugation for 2 h. […]

B1: IL-12: recombinant human IL-12 p70 (200-12); recombinant murine IL-12 in the mouse NK cell test (protein, UniProt P29459 23-219; P29460 23-328, looked up)
Interleukin-12 subunit alpha: RNLPVATPDPGMFPCLHHSQNLLRAVSNMLQKARQTLEFYPCTSEEIDHEDITKDKTSTVEACLPLELTKNESCLNSRETSFITNGSCLASRKTSFMMALCLSSIYEDLKMYQVEFKTMNAKLLMDPKRQIFLDQNMLAVIDELMQALNFNSETVPQKSSLEEPDFYKTKIKLCILLHAFRIRAVTIDRVMSYLNAS
Interleukin-12 subunit beta: IWELKKDVYVVELDWYPDAPGEMVVLTCDTPEEDGITWTLDQSSEVLGSGKTLTIQVKEFGDAGQYTCHKGGEVLSHSLLLLHKKEDGIWSTDILKDQKEPKNKTFLRCEAKNYSGRFTCWWLTTISTDLTFSVKSSRGSSDPQGVTCGAATLSAERVRGDNKEYEYSVECQEDSACPAAEESLPIEVMVDAVHKLKYENYTSSFFIRDIIKPDPPKNLQLKPLKNSRQVEVSWEYPDTWSTPHSYFSLTFCVQVQGKSKREKKDRVFTDKTSATVICRKNASISVRAQDRYYSSSWSEWASVPCS
modifications: p70 heterodimer
notes: recombinant human IL-12 p70 (200-12); recombinant murine IL-12 in the mouse NK cell test
PDGFRβ expression in murine NK cells (murine NK cells): did not express PDGFRβ | PDGFRβ expression [1]: ineffective
